IntAct's records for PubMed 25727097

B1: 5-hydroxytryptamine receptor 2C (Homo sapiens), P28335-1 (parent)
chain: MVNLRNAVHSFLVHLIGLLVWQSDISVSPVAAIVTDIFNTSDGGRFKFPDGVQNWPALSIVIIIIMTIGGNILVIMAVSMEKKLHNATNYFLMSLAIADMLVGLLVMPLSLLAILYDYVWPLPRYLCPVWISLDVLFSTASIMHLCAISLDRYVAIRNPIEHSRFNSRTKAIMKIAIVWAISIGVSVPIPVIGLRDEEKVFVNNTTCVLNDPNFVLIGSFVAFFIPLTIMVITYCLTIYVLRRQALMLLHGHTEEPPGLSLDFLKCCKRNTAEEENSANPNQDQNARRRKKKERRPRGTMQAINNERKASKVLGIVFFVFLIMWCPFFITNILSVLCEKSCNQKLMEKLLNVFVWIGYVCSGINPLVYTLFNKIYRRAFSNYLRCNYKVEKKPPVRQIPRVAATALSGRELNVNIYRHTNEPVIEKASDNEPGIEMQVENLELPVNPSSVVSERISSV

Variants of: B1
Details: with GHSR

Variant	effect of a mutation on the interaction
MVNLRNAVHSFLVHLIGLLVWQSDISVSPVAAIVTDIFNTSDGGRFKFPDGVQNWPALSIVIIIIMTIGGNILVIMAVSMEKKLHNATNYFLMSLAIADMLVGLLVMPLSLLAILYDYVWPLPRYLCPVWISLDVLFSTASIMHLCAISLDRYVAVRSPVEHSRFNSRTKAIMKIAIVWAISIGVSVPIPVIGLRDEEKVFVNNTTCVLNDPNFVLIGSFVAFFIPLTIMVITYCLTIYVLRRQALMLLHGHTEEPPGLSLDFLKCCKRNTAEEENSANPNQDQNARRRKKKERRPRGTMQAINNERKASKVLGIVFFVFLIMWCPFFITNILSVLCEKSCNQKLMEKLLNVFVWIGYVCSGINPLVYTLFNKIYRRAFSNYLRCNYKVEKKPPVRQIPRVAATALSGRELNVNIYRHTNEPVIEKASDNEPGIEMQVENLELPVNPSSVVSERISSV [I156V;N158S;I160V]	increasing interaction strength
